Legend:
[1] = target: T1, PIGF (UniProt P49763-2 21-149, limits assumed); experiment: solid phase binding ELISA on coated PIGF (Example 12.8)
T1 construct: also called placenta growth factor
T1 sequence (looked up): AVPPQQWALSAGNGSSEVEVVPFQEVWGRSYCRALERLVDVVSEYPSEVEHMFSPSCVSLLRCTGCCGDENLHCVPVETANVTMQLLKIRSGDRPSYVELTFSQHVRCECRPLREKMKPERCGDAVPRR
Description: (§1) Binding to VEGFB, VEGFC, VEGFD and PIGF is assessed via a solid phase binding ELISA. […] Wells are blocked with a casein solution (1% in PBS). […] As positive controls serial dilutions of the appropriate receptors are taken along and detected with horseradish peroxidase (HRP)-conjugated goat anti-human IgG, Fc specific antibody (Jackson Immuno Research Laboratories Inc., West Grove, Pa., USA) and a subsequent enzymatic reaction in the presence of the substrate TMB (3,3′,5,5′-tetramentylbenzidine) (Pierce, Rockford, Ill., USA).

[2] = target: T2, VEGFC (UniProt P49767 103-227, limits assumed); experiment: binding ELISA on coated VEGFC (Example 12.8), OD 450 nm
T2 sequence (looked up): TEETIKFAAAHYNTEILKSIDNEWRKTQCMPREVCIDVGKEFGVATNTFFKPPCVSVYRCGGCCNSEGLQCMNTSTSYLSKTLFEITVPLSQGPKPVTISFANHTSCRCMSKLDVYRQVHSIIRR
Description: as §1

[3] = target: T3, VEGFD (UniProt O43915 93-201, limits assumed); experiment: binding ELISA on coated VEGFD (Example 12.8), OD 450 nm
T3 sequence (looked up): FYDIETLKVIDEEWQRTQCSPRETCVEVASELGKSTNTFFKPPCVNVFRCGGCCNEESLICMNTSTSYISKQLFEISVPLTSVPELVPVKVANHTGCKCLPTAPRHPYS
Description: as §1

[4] = target: T4, VEGFB (UniProt P49765-2 22-188, limits assumed); experiment: binding ELISA on coated VEGFB (Example 12.8), OD 450 nm
T4 sequence (looked up): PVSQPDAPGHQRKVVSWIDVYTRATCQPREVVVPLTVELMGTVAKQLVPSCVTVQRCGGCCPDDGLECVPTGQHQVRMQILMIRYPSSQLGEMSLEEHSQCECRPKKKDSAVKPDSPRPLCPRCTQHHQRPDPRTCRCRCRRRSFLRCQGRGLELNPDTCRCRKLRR
Description: as §1

[5] = target: T5, cynomolgus DLL4 overexpressed on cells (cynomolgus, UniProt Q9NR61 27-685 (human entry)); experiment: FACS titration on HEK293-cDLL4 cells, MCF
T5 construct: also called cyno DII4; cDLL4
T5 chain: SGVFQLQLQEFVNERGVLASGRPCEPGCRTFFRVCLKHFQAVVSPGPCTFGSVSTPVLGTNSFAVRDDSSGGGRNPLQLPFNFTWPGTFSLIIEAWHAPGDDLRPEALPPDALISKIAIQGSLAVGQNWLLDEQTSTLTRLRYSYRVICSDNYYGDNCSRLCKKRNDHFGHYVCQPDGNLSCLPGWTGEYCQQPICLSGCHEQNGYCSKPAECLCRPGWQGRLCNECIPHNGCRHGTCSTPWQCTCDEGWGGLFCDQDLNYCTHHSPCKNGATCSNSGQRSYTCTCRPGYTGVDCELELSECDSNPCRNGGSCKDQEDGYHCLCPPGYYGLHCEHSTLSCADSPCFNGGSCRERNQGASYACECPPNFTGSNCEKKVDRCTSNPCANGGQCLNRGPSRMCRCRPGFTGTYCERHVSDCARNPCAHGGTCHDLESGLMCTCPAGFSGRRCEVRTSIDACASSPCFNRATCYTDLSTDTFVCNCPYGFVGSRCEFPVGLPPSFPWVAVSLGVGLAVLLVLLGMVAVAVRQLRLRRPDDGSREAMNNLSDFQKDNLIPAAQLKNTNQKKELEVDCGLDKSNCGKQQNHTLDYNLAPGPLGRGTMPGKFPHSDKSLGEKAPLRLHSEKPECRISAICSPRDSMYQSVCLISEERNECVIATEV
Description: (§2) In order to determine the cynomologus cross-reactivity of the VHHs, a FACS binding experiment is performed. Cynomolgus DII4 expressing HEK293 cells (transient or stable transfection) are used for a titration binding experiment of the VHHs. After a 30 minutes incubation on ice, all samples are washed and detection is performed by applying anti-c-myc˜Alexa647 (Santa Cruz Biotechnology, Santa Cruz, Calif., USA). Human and mouse DII4 overexpressing HEK293 cells are taken as reference. The mean MCF value is determined on the FACS Array and used for calculation of the EC₅₀ value (see FIG. 9 A-E).

[6] = target: T6, mouse DLL4 overexpressed on cells (mouse, UniProt Q9JI71 27-686); experiment: FMAT, labelled hNotch1-Fc on CHO-mDLL4, periplasmic extract
T6 construct: whole, on cells; also called CHO-mDLL4; CHO-mDII4
Description: (§3) All calculations are based on the FL1_total signal which comprises the average of the fluorescence per well times the number of counts per well.
Target sequence in this assay (Q9JI71 27-686): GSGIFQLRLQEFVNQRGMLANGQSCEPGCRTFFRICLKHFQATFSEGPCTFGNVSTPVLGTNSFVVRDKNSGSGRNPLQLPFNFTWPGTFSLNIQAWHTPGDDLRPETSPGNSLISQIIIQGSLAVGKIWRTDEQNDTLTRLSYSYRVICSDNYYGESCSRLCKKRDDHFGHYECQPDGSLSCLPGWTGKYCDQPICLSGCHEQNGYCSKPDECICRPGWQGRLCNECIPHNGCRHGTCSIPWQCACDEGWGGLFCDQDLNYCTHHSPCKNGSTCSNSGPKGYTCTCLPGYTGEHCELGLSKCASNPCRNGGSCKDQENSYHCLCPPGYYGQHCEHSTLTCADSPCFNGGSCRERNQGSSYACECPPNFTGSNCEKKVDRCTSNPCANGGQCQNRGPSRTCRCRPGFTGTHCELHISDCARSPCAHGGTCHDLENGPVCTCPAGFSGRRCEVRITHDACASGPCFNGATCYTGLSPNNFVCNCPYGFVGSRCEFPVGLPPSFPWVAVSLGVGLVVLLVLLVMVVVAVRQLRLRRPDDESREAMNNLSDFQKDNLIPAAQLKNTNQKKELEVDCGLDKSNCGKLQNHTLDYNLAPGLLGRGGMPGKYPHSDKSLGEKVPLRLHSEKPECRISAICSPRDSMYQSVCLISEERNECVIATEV

[7] = target: T7, recombinant human DLL4 (human, UniProt Q9NR61 25-522); experiment: binding ELISA, coated rhDLL4
T7 construct: also called rhDLL4; hDLL4
Description: (§4) In order to determine cross-reactivity to mouse DII4 a binding ELISA is performed. […] Wells are blocked with a casein solution (1% in PBS). VHHs are applied as dilution series and binding is detected using a mouse anti-myc (Roche) and an anti-mouse-AP conjugate (Sigma, St Louis, Mo., USA) (FIG. 7 A-H). As reference, binding to human DII4 is measured.

[8] = target: T8, recombinant mouse DLL4 (mouse, UniProt Q9JI71 27-532); experiment: binding ELISA on coated recombinant mouse DLL4, OD 405 nm
T8 construct: extracellular domain; also called rmDLL4; mDLL4
T8 sequence (Q9JI71 27-532): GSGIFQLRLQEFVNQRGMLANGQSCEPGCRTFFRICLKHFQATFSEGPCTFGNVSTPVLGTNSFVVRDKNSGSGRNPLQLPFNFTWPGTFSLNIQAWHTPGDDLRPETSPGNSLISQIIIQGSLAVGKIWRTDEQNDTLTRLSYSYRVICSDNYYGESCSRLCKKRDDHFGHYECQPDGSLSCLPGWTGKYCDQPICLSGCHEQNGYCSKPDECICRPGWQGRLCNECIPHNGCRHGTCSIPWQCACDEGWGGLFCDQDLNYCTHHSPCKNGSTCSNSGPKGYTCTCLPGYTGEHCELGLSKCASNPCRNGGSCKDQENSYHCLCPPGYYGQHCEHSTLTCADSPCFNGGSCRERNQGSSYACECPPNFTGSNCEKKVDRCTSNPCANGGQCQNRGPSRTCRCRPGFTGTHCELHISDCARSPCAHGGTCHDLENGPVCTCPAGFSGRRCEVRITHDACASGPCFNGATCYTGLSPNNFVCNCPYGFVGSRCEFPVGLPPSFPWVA
Description: as §4

[9] = target: T9, human Jagged-1 (human, UniProt P78504 34-1067, limits assumed); experiment: binding ELISA on coated recombinant human Jagged-1, OD 405 nm
T9 construct: also called hJagged-1; hJAG1
How it was run: (§5)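 Plates coated overnight at 4° C with 1 μg/mL ligand, blocked with 1% casein in PBS. VHH dilution series applied; bound VHH detected via mouse anti-myc then anti-mouse-AP conjugate.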

[10] = target: T6, mouse DLL4 overexpressed on cells; experiment: FMAT competition on CHO-mDLL4 cells; blocked ligand Alexa-647 labelled hNotch1-Fc
[11] = target: T10, human DLL4 overexpressed on cells (human, UniProt Q9NR61 27-685); experiment: cell-based or functional assay
[12] = target: T10, human DLL4 overexpressed on cells; experiment: FMAT, labelled hNotch1-Fc on CHO-hDLL4, periplasmic extract
Description: as §3

[13] = target: T7, recombinant human DLL4; experiment: cell-based or functional assay
[14] = target: T7, recombinant human DLL4; experiment: SPR Biacore T100, hDLL4 on chip; heterogeneous binding curve, no 1:1 fit
Description: Kinetic analysis to determine the affinity of the DII4-VHH interaction is performed by Surface Plasmon Resonance (SPR) on a Biacore T100 instrument. […] Purified VHHs or Fab fragment are injected for 2 minutes at different concentrations (between 10 and 300 nM) and allowed to dissociate for 20 min at a flow rate of 45 μl/min. Between sample injections, the surfaces are regenerated with 10 mM glycine pH1.5 and 100 mM HCl. HBS-N (Hepes buffer pH7.4) is used as running buffer. If possible, data are evaluated by fitting a 1:1 interaction model (Langmuir binding) onto the binding curves. The affinity constant KD is calculated from resulting association and dissociation rate constants (kₐ) and […].

[15] = target: T10, human DLL4 overexpressed on cells; experiment: competitive FMAT, hNotch1-Fc on CHO-hDLL4
[16] = target: T10, human DLL4 overexpressed on cells; experiment: FACS titration on HEK293-hDLL4 cells, MCF
Description: as §2

[17] = target: T7, recombinant human DLL4; experiment: Biacore off-rate, periplasmic extract
[18] = target: T11, human DLL1 (human, UniProt O00548 18-545, limits assumed); experiment: binding ELISA on coated recombinant human DLL1, OD 405 nm
T11 construct: also called hDLL1
T11 sequence (looked up): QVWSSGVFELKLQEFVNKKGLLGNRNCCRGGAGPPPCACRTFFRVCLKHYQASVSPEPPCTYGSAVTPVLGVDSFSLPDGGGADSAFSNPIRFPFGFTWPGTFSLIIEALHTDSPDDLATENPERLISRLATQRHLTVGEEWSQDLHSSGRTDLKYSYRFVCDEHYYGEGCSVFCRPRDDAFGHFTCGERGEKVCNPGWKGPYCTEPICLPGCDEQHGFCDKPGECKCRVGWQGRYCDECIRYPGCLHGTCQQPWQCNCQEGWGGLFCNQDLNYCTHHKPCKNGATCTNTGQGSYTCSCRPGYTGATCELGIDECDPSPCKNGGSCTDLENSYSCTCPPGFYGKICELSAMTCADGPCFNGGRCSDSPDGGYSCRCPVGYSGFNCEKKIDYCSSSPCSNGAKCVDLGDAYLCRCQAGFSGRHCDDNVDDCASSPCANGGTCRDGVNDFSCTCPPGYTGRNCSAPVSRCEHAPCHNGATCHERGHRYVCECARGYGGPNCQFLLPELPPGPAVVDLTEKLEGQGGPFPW
How it was run: as §5

[19] = target: T7, recombinant human DLL4; experiment: competition ELISA, biot-hDLL4 to coated hNotch1-Fc
Description: Residual binding of biotinylated human DII4 is detected using horseradish peroxidase (HRP) conjugated extravidin (Sigma, St. Louis, Mo., USA) (FIG. 3 A-C). Human DII4 is biotinylated as described above.

[20] = target: T12, mouse DLL4 expressed on CHO cells (mouse, UniProt Q9JI71 27-686); experiment: FMAT competition on CHO-mDLL4 cells; unlabelled rhNotch1-Fc competes with Alexa-647 labelled hNotch1-Fc
T12 construct: whole, on cells; also called mDLL4; CHO-mDLL4

[21] = target: T13, human DLL4 expressed on cells (CHO-hDLL4; HEK293-hDLL4) (human, UniProt Q9NR61 27-685); experiment: FMAT competition on CHO-hDLL4 cells; unlabelled rhNotch1-Fc competes with Alexa-647 labelled hNotch1-Fc
T13 construct: full length human DLL4 overexpressed on CHO cells (FMAT, FACS) or HEK293 cells (reporter assay)

B1: VEGFBII010 (VHH)
chain: EVQLVESGGGLVQTGDSLRLSCEVSGRTFSSYSMGWFRQAQGKEREFVVAISKGGYKYDSVSLEGRFTISKDNAKNTVYLQINSLKPEDTAVYYCASSRAYGSSRLRLADTYEYWGQGTQVTVSSGGGGSGGGGSGGGGSGGGGSGGGGSGGGGSGGGGSEVQLVESGGGLVQTGDSLRLSCEVSGRTFSSYSMGWFRQAQGKEREFVVAISKGGYKYDSVSLEGRFTISKDNAKNTVYLQINSLKPEDTAVYYCASSRAYGSSRLRLADTYEYWGQGTQVTVSS
notes: homodimeric bivalent VHH; also called VEGFBII23B04-35GS-23B04
- binding result [1]: no binding (tested: about 5e-7 M)
- binding result [2]: no binding (tested: 5e-7 M)
- binding result [3]: no binding (tested: 5e-7 M)
- binding result [4]: no binding (tested: 5e-7 M)

B2: DLLBII104G01 (VHH)
VHH: EVQLVESGGGLVQAGGSLRLSCAASGFTFDDYAIGWFRQAPGKEREGVSCISSSDGSTYYADSVKGRFTISSDNAKNTVYLQMNSLKPEDTAVYYCATAWCDSSWYRSFVGYWGQGTQVTVSS
notes: also called 104G1
- EC50 (read off the curve) [5]: ~5 nM
- % inh [6]: 86%
- EC50 [7]: 8.4 nM
- binding result [8]: no binding (tested: 5e-7 M)
- binding result [9]: no binding (tested: 5e-7 M)
- IC50 (read off the curve) [10]: ~60 nM
- IC50, DLL4/Notch1 reporter assay [11]: 964 nM
- % inh [12]: 94%
- IC50 (nM) (experiment 1), DLL4 proliferation assay (HUVEC) [13]: 103 nM
- IC50 (nM) (experiment 2), DLL4 proliferation assay (HUVEC) [13]: 32 nM
- Kd [14]: 4 to 24 nM
- koff [14]: 0.0006 to 0.003 s⁻¹
- kon [14]: 120000 to 150000 M⁻¹ s⁻¹
- IC50 [15]: 2.5 nM
- EC50 (read off the curve) [16]: ~4 nM
- koff [17]: 0.0012 s⁻¹
- binding result [18]: no binding (tested: 5e-7 M)
- IC50 [19]: 1.1 nM

B3: human Notch1/Fc chimera (R&D Systems) (Fc fusion, UniProt P46531 19-526, looked up, not shown: a dimerising Fc or GST)
chain: ARGPRCSQPGETCLNGGKCEAANGTEACVCGGAFVGPRCQDPNPCLSTPCKNAGTCHVVDRRGVADYACSCALGFSGPLCLTPLDNACLTNPCRNGGTCDLLTLTEYKCRCPPGWSGKSCQQADPCASNPCANGGQCLPFEASYICHCPPSFHGPTCRQDVNECGQKPGLCRHGGTCHNEVGSYRCVCRATHTGPNCERPYVPCSPSPCQNGGTCRPTGDVTHECACLPGFTGQNCEENIDDCPGNNCKNGGACVDGVNTYNCRCPPEWTGQYCTEDVDECQLMPNACQNGGTCHNTHGGYNCVCVNGWTGEDCSENIDDCASAACFHGATCHDRVASFYCECPHGRTGLLCHLNDACISNPCNEGSNCDTNPVNGKAICTCPSGYTGPACSQDVDECSLGANPCEHAGKCINTLGSFECQCLQGYTGPRCEIDVNECVSNPCQNDATCLDQIGEFQCICMPGYEGVHCEVNTDECASSPCLHNGRCLDKINEFQCECPTGFTGHLCQ
modifications: Alexa-647 labelled in the FMAT assay
notes: also called hNotch1-Fc; rhNotch1/Fc
- IC50 (read off the curve) [20]: ~2 nM
- IC50 (read off the curve) [21]: ~4 nM

From patent publication US20140120095A1 (Boehringer Ingelheim, published 2014)
